From patent publication US20090317333

Test system: AKAR3 (A-Kinase Activity Reporter 3)

For “catalytic subunit of PKA (protein kinase A), as used in the in vitro kinase assay”, the “FRET efficiency of AKAR3 after phosphorylation (trypsin quantification)” value was 38.8%±7.36% and 47.2%±7.67% (n=2) before and after phosphorylation, respectively, the “FRET efficiency of AKAR3 before phosphorylation (trypsin quantification)” value was 38.8%±7.36% and 47.2%±7.67% (n=2) before and after phosphorylation, respectively and the “increase of the emission ratio of AKAR3 over approximately 40 minutes after addition of ATP (in vitro kinase assay)” value was 29.1%±1.11% (n=2).
